Consider four molecules from PMC10778600, “Conserved Residues Lys64 and Glu78 at the Subunit Surface of Tau Glutathione Transferase in Rice Affect Structure and Enzymatic Properties” (International Journal of Molecular Sciences, 2023).

For data set [1], the target named is OsGSTU17 mutant K64A (Oryza sativa). The experiment in a line: native gel or EMSA; native PAGE of the purified proteins, gel pre-run 30-60 min, 100-200 V, 0-4 °C; BSA and ovalbumin as markers; molecular weight compared with SDS-PAGE of the denatured proteins.
Data set [2] concerns the target OsGSTU17 mutant E78A (Oryza sativa). The description is as above.
The target in data set [3] is wild-type OsGSTU17 (rice tau class glutathione transferase) (Oryza sativa). Described as above.
Substrate in data set [4]: O=[N+]([O-])c1ccc(Cl)c2nonc12
Description: steady-state kinetics, non-linear regression. The format is biochemical, Oryza sativa. The following applies: GSH fixed at 1.0 mM; NBD-Cl 0.2 to 1.0 mM. The source says:
steady-state kinetics, non-linear regression on OsGSTU17

With OsGSTU17 mutant K64A (enzyme), the stoichiometry N in data set [1] worked out at 2.

Regarding OsGSTU17 mutant E78A (enzyme), the stoichiometry N in data set [2] was 2.

As to “wild-type OsGSTU17 (rice tau class glutathione transferase) (enzyme)”, the stoichiometry N in data set [3] worked out at 2.

B1: OsGSTU17 (Oryza sativa Japonica Group; K64A) (protein)
chain: MAADKGVKVFGMWASPMAIRVEWALRLKGVDYEYVDEDLANKSEALLRHNPVTKKVPVLVHDGAPLAESTVIVEYIDEAWKHGYPIMPSDPFDRAQARFWARFAEEKCNAALYPIFMTTGEEQRKLVHEAQQCLKTLETALEGKKFFGGDAFGYLDIVTGWFAYWLPVIEEACGVEVVTDEALPLMKAWFDRVLAVDAVKAVLPPRDKLVALNKARREQILSA
Take B1: in data set [4], the Km stood at 507 ± 25 µM, the maximum rate (Vmax) is 0.287 µM/min/mg, the kcat worked out at 0.217 s⁻¹ and the specificity constant (kcat/Km) stood at 428 M⁻¹ s⁻¹.
